Assay results published in patent publication US12042530B2, “Target peptides for immunotherapy and diagnostics” (University of Virginia Patent Foundation, priority 2012, dated 2024).
Non-standard residues stand in square brackets, D forms with d. No end group written: not given here. pT = C[C@@H](OP(=O)(O)O)[C@H](N)C(=O)O; pS = N[C@@H](COP(=O)(O)O)C(=O)O

Legend:
[1] = target: T1, HLA-B*0702 (HLA-B7) peptide complexes (Homo sapiens, UniProt P01889); assay: HLA-B*0702 phosphopeptides associated with leukemia samples (isolation of HLA-associated peptides); settings: for Copies/cell class, ALL1: acute lymphoblastic leukemia sample ALL1; for Copies/cell class, HCL1: hairy cell leukemia sample HCL1; for Copies/cell class, B Cell: healthy B cells; for Copies/cell class, T Cell: healthy T cells
T1 construct: endogenous in cells; host or cells: JY B-lymphoblastoid line; primary ALL, CLL, HCL, AML samples; bone marrow; healthy B and T cells
Text: To identify naturally processed tumor-associated phosphopeptides, HLA-A*0201 (HLA-A2) and HLA-B*0702 (HLA-B7) peptide complexes from four (4) chronic lymphocytic leukemia (CLL) tumor samples, a mantle cell lymphoma sample (MCL), one acute lymphoblastic leukemia (ALL), and an acute myeloid leukemia (AML) sample, in addition to healthy splenic T and B-cells and the cultured lymphoblastoid cell line JY were isolated. These efforts yielded 10 HLA-A2-restricted and 86 HLA-B7-restricted phosphopeptide antigens (see Tables 6 and 7).
All cell lines were grown at 37° C. with 5% CO2 in growth medium consisting of RPMI 1640 supplemented with 10% FCS and two mM L-glutamine. Blood or leukapheresis samples were taken from patients with high-burden leukemia in heparin. Tumor cells were recovered by layering the blood over density gradient (Ficoll) and collecting the tumor layer following centrifugation. The tumor was washed in tris-buffered saline (TBS). The purity of the tumor was assessed using flow cytometry and was >98% pure in all cases. For healthy T and B-cell populations, a normal spleen sample processed and tonsil sample was collected and lymphocytes released through mechanical disruption. Mononuclear cells were isolated using a density gradient and 10^9 T cells isolated using anti-CD19 or anti-CD3 microbeads (Miltenyi Biotec Inc., Auburn, California, United States of America) with purity >98% were obtained. Bone marrow sample was obtained from an elective orthopedic procedure and red cell-depleted using hypotonic lysis. This sample was not processed further.
Class I MHC molecules were immunoaffinity purified from the JY cell line or from primary tumor samples, and their associated peptides were extracted as previously described in Zarling et al., 2006. Approximately 1.2-14×10^9 cells were lysed in a solution containing 20 mM Tris-HCl (pH 8.0), 150 mM NaCl, 1% CHAPS, one mM PMSF, five μg/mL aprotinin, 10 μg/mL leupeptin, 10 μg/mL pepstatin A, 1 μg/ml calyculin A, and phosphatase inhibitor (cocktails I and II; Sigma-Aldrich). The mixture was subjected to centrifugation and the resulting supernatant was passed over protein A sepharose pre-loaded with the HLA-A2-specific antibody BB7.2 or HLA-B7-specific antibody MEL Peptides were eluted from the purified class I MHC molecules with 10% acetic acid.

[2] = target: T2, HLA-B*0702 (Homo sapiens, UniProt P01889); assay: Phosphopeptides presented in association with class I molecules (HLA-B*0702) on cancer cells: melanoma and/or leukemia; design: key: Melanoma (M); Leukemia (L); L/M: Melanoma (M) and/or Leukemia (L); settings: cancer type on which the HLA-B*0702 phosphopeptide is presented
T2 construct: endogenous in cells; host or cells: melanoma and/or leukemia cells

Row | Substance | Copies/cell class, AML1 [1] | L/M [2] | Copies/cell class, CLL2 [1] | Copies/cell class, JY [1] | Copies/cell class, ALL1 [1] | Copies/cell class, HCL1 [1] | Copies/cell class, B Cell [1] | Copies/cell class, T Cell [1] | Copies/cell class, CLL4 [1]
1 | 328 (RPRPV[pS]PSSL; listed as Homo sapiens) [compound 328] | 1 (1 indicates <1 copy/cell) | L | – | – | – | – | – | – | –
2 | 330 (RPR[pS]AVLL; listed as Homo sapiens) [compound 330] | 2 (2 indicates 1-5 copies/cell) | L | – | – | – | – | – | – | –
3 | 331 (RPR[pS]LEVTI; listed as Homo sapiens) [compound 331] | 1 (1 indicates <1 copy/cell) | L | – | – | – | – | – | – | –
4 | 333 (RPR[pS]PAARL; listed as Homo sapiens) [compound 333] | 1 (1 indicates <1 copy/cell) | L | – | – | – | – | – | – | –
5 | 334 (RPR[pS]PGSNSKV; listed as Homo sapiens) [compound 334] | 1 (1 indicates <1 copy/cell) | L | – | – | – | – | – | – | –
6 | 336 (RPR[pS]PRQNSI; listed as Homo sapiens) [compound 336] | 2 (2 indicates 1-5 copies/cell) | L | – | – | – | – | – | – | –
7 | 337 (RPR[pS]PSPIS; listed as Homo sapiens) [compound 337] | 2 (2 indicates 1-5 copies/cell) | L | – | – | – | – | – | – | –
8 | 338 (RPR[pS]PTGP; listed as Homo sapiens) [compound 338] | 4 (4 indicates >25 copies per cell) | L | – | – | – | – | – | – | –
9 | 339 (RPR[pS]PTGP[pS]NSF; listed as Homo sapiens) [compound 339] | 2 (2 indicates 1-5 copies/cell) | L | – | – | – | – | – | – | –
10 | 342 (RPSRS[pS]PGL; listed as Homo sapiens) [compound 342] | 2 (2 indicates 1-5 copies/cell) | L | – | – | – | – | – | – | –
11 | 343 (RPS[pS]LPDL; listed as Homo sapiens) [compound 343] | 2 (2 indicates 1-5 copies/cell) | L | 2 (2 indicates 1-5 copies/cell) | 3 (3 indicates 6-25 copies per cell) | 4 (4 indicates >25 copies per cell) | 1 (1 indicates <1 copy/cell) | 3 (3 indicates 6-25 copies per cell) | 4 (4 indicates >25 copies per cell) | –
12 | 344 (RP[pS]SPALYF; listed as Homo sapiens) [compound 344] | 1 (1 indicates <1 copy/cell) | L | 1 (1 indicates <1 copy/cell) | – | 1 (1 indicates <1 copy/cell) | 1 (1 indicates <1 copy/cell) | – | – | 1 (1 indicates <1 copy/cell)
13 | 346 (RPT[pS]RLNRL; listed as Homo sapiens) [compound 346] | 2 (2 indicates 1-5 copies/cell) | L | 2 (2 indicates 1-5 copies/cell) | 4 (4 indicates >25 copies per cell) | 2 (2 indicates 1-5 copies/cell) | 2 (2 indicates 1-5 copies/cell) | 2 (2 indicates 1-5 copies/cell) | – | 2 (2 indicates 1-5 copies/cell)
14 | 347 (RPV[pS]PFQEL; listed as Homo sapiens) [compound 347] | 2 (2 indicates 1-5 copies/cell) | L | 2 (2 indicates 1-5 copies/cell) | 4 (4 indicates >25 copies per cell) | 3 (3 indicates 6-25 copies per cell) | 3 (3 indicates 6-25 copies per cell) | 3 (3 indicates 6-25 copies per cell) | 3 (3 indicates 6-25 copies per cell) | 2 (2 indicates 1-5 copies/cell)
15 | 348 (RPV[pS]PGKDI; listed as Homo sapiens) [compound 348] | – | L | – | – | 1 (1 indicates <1 copy/cell) | – | – | – | –
16 | 349 (RPV[pT]PVSDL; listed as Homo sapiens) [compound 349] | – | L | 2 (2 indicates 1-5 copies/cell) | 4 (4 indicates >25 copies per cell) | 4 (4 indicates >25 copies per cell) | 1 (1 indicates <1 copy/cell) | 2 (2 indicates 1-5 copies/cell) | 2 (2 indicates 1-5 copies/cell) | –
17 | 350 (RPW[pS]PAVSA; listed as Homo sapiens) [compound 350] | – | L | – | 1 (1 indicates <1 copy/cell) | 1 (1 indicates <1 copy/cell) | 1 (1 indicates <1 copy/cell) | – | – | –
18 | 351 (RPY[pS]PPFFSL; listed as Homo sapiens) [compound 351] | 2 (2 indicates 1-5 copies/cell) | L | – | 2 (2 indicates 1-5 copies/cell) | 2 (2 indicates 1-5 copies/cell) | – | 2 (2 indicates 1-5 copies/cell) | 2 (2 indicates 1-5 copies/cell) | –
19 | 352 (RRK[pS]QVAEL; listed as Homo sapiens) [compound 352] | 4 (4 indicates >25 copies per cell) | L | – | – | – | – | – | – | –
20 | 356 (RRS[pS]LDAEIDSL; listed as Homo sapiens) [compound 356] | 1 (1 indicates <1 copy/cell) | L | – | – | – | – | – | – | –
21 | 358 (RSE[pS]KDRKL; listed as Homo sapiens) [compound 358] | – | L | – | – | 1 (1 indicates <1 copy/cell) | – | – | – | –
22 | 359 (RSG[pS]LERKV; listed as Homo sapiens) [compound 359] | – | L | – | – | 1 (1 indicates <1 copy/cell) | – | – | – | –
23 | 360 (RSL[pS]PGGAA; listed as Homo sapiens) [compound 360] | – | L | – | – | 1 (1 indicates <1 copy/cell) | – | – | – | –
24 | 361 (RSL[pS]PLLF; listed as Homo sapiens) [compound 361] | – | L | – | – | 2 (2 indicates 1-5 copies/cell) | – | 1 (1 indicates <1 copy/cell) | 1 (1 indicates <1 copy/cell) | –
25 | 363 (RTE[pS]DSGLKK; listed as Homo sapiens) [compound 363] | – | L | – | – | 1 (1 indicates <1 copy/cell) | – | – | – | –
26 | 366 (RVR[pS]PTRSP; listed as Homo sapiens) [compound 366] | 2 (2 indicates 1-5 copies/cell) | L | – | – | – | – | – | – | –
27 | 367 (SPA[pS]PKISL; listed as Homo sapiens) [compound 367] | – | L | 1 (1 indicates <1 copy/cell) | 4 (4 indicates >25 copies per cell) | 1 (1 indicates <1 copy/cell) | 1 (1 indicates <1 copy/cell) | – | – | 1 (1 indicates <1 copy/cell)
28 | 368 (SPEKAGRR[pS]SL; listed as Homo sapiens) [compound 368] | 1 (1 indicates <1 copy/cell) | L | – | – | – | – | – | – | –
29 | 370 (SPGLARKR[pS]L; listed as Homo sapiens) [compound 370] | 1 (1 indicates <1 copy/cell) | L | – | – | – | – | – | – | –
